Laboratory results: patent CN117866903A (BEILAI PHARMACEUTICAL CO LTD, dated 2024)

Tests used:
[1] = biological target: T1, Human IL-17A重组蛋白 (Gly 24-Ala 155, C端6×His) (human, biotinylated in the ELISA of paragraph 251 (Biotin-IL-17A-His)); assay: ELISA: antibody coated at 2 μg/mL, Biotin-IL-17A-His titrated from 10 μg/mL (5-fold, 7 points), HRP-streptavidin
[2] = biological target: T1, Human IL-17A重组蛋白 (Gly 24-Ala 155, …); assay: cell-based or functional assay
[3] = biological target: T1, Human IL-17A重组蛋白 (Gly 24-Ala 155, …); assay: BLI (ForteBio OCTET R2): IL-17A-His at 5 μg/mL on HIS1K sensor, antibody 50-3.13 nM, 25℃

T1 sequence (chain, as listed by the source): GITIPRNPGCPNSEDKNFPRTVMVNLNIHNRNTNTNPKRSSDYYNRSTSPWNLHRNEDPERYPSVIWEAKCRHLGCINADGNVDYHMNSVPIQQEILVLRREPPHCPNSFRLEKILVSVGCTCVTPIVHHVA

Binder	EC50 [1] [µg/mL]	串联单域抗体阻断活性检测 (293F-IL-17RA-IL-17Rc-ACT1-NFκB-Luc报告基因细胞株), IC50 [2] [nM]	Kd [3] [nM]
串联单域抗体1-C3-3-H10 (VHH-(GGGGS)3-VHH-IgG1 Fc) (Fc fusion, also called C3-H10; C3-H10重组蛋白; not shown: human IgG1 Fc) DVQLVESGGGLVEPGESLRLSCAAPGEDLGYYAIAWFRQAPGKEREVVSCVTSSGSSTNYLSSVKDRFTISIDNAKNTVYLQMNSLKPEDTAVYYCASTILLCSDYISAFGTWGQGTQVTVASGGGGSGGGGSGGGGSEVQLVESGGGLVQPGGSLRLSCAASGFSIHIYAMGWYRQAPGKQRELVATITRGGVTNNADSVKGRFTISRDNAKNTAYLQMNSLKPEDTAVYYCNAGGTNGGYWGQGTQVTVSS	1.13	0.63	1.32
阳性对照抗体Ixekizumab (antibody, human IgG4 S228P, kappa, V domains shown, also called 阳性抗体; 依奇珠单抗) VH: QVQLVQSGAEVKKPGSSVKVSCKASGYSFTDYHIHWVRQAPGQGLEWMGVINPMYGTTDYNQRFKGRVTITADESTSTAYMELSSLRSEDTAVYYCARYDYFTGTGVYWGQGTLVTVSS VL: DIVMTQTPLSLSVTPGQPASISCRSSRSLVHSRGNTYLHWYLQKPGQSPQLLIYKVSNRFIGVPDRFSGSGSGTDFTLKISRVEAEDVGVYYCSQSTHLPFTFGQGTKLEIKR	10.1	2.23	0.391
单域抗体1-C3 (Fc fusion, not shown: human IgG1 Fc of vector pcDNA3.4-hIgG1-Fc) DVQLVESGGGLVEPGESLRLSCAAPGEDLGYYAIAWFRQAPGKEREVVSCVTSSGSSTNYLSSVKDRFTISIDNAKNTVYLQMNSLKPEDTAVYYCASTILLCSDYISAFGTWGQGTQVTVAS	5.28	–	–
单域抗体3-H10 (Fc fusion, not shown: human IgG1 Fc of vector pcDNA3.4-hIgG1-Fc) EVQLVESGGGLVQPGGSLRLSCAASGFSIHIYAMGWYRQAPGKQRELVATITRGGVTNNADSVKGRFTISRDNAKNTAYLQMNSLKPEDTAVYYCNAGGTNGGYWGQGTQVTVSS	1.22	–	–
